In patent US20220332804A1 (CSL INNOVATION, published 2022) one finds Kd data, which are given here for 1 molecule.

Common to all, as to experiment: SPR, antibody captured, C2 as analyte;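 also: biacore SPR at 37 °C, anti-C2 mAbs captured via goat anti-human IgG on CM5 chips, double-referenced sensorgrams fit to a 1:1 kinetic or steady-state model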
Background: Surface plasmon resonance follows binding to a sensor surface in real time, without labels.

One experiment addresses T1, human C2 G427A (human, UniProt P06681 21-752).
T1 sequence: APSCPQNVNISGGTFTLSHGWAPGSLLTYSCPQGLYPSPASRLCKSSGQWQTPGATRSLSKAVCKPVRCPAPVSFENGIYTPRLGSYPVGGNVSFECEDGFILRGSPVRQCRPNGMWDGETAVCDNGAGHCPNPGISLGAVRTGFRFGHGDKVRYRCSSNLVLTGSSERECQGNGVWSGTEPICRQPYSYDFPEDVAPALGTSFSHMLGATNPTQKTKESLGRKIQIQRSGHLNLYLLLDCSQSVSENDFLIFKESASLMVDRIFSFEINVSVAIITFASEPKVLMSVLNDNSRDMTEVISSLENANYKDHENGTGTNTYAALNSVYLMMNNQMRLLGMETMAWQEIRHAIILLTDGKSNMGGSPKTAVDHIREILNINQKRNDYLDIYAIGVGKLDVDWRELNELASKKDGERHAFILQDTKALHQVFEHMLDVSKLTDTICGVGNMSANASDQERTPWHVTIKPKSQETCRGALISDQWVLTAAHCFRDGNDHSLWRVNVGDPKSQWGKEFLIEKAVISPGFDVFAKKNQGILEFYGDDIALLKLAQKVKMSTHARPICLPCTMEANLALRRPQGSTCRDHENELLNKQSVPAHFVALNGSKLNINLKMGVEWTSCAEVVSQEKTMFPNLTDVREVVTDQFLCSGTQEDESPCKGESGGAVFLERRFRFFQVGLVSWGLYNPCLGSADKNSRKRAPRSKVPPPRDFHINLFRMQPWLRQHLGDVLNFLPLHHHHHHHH

The target of another experiment is T2, human C2 R493A (human, UniProt P06681 21-752).
T2 sequence: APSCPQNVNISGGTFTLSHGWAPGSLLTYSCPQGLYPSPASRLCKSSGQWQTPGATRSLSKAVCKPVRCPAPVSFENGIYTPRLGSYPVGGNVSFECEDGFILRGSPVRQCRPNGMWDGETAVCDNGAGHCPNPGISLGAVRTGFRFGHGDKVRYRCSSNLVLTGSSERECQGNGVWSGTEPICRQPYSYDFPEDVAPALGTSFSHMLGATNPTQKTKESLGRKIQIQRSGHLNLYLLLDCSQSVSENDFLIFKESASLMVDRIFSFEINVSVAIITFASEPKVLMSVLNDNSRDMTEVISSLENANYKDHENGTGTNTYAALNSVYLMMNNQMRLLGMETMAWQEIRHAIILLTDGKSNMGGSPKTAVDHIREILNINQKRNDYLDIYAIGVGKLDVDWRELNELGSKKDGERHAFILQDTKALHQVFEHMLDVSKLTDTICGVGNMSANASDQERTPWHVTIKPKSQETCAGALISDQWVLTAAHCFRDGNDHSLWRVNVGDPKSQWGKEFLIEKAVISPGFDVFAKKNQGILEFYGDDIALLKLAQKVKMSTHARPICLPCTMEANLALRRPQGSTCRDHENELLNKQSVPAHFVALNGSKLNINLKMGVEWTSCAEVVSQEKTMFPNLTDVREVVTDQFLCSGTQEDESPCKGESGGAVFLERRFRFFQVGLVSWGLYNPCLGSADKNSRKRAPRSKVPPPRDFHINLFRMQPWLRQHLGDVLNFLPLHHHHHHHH

The target in the next experiment is T3, human C2 K550A (human, UniProt P06681 21-752).
T3 sequence: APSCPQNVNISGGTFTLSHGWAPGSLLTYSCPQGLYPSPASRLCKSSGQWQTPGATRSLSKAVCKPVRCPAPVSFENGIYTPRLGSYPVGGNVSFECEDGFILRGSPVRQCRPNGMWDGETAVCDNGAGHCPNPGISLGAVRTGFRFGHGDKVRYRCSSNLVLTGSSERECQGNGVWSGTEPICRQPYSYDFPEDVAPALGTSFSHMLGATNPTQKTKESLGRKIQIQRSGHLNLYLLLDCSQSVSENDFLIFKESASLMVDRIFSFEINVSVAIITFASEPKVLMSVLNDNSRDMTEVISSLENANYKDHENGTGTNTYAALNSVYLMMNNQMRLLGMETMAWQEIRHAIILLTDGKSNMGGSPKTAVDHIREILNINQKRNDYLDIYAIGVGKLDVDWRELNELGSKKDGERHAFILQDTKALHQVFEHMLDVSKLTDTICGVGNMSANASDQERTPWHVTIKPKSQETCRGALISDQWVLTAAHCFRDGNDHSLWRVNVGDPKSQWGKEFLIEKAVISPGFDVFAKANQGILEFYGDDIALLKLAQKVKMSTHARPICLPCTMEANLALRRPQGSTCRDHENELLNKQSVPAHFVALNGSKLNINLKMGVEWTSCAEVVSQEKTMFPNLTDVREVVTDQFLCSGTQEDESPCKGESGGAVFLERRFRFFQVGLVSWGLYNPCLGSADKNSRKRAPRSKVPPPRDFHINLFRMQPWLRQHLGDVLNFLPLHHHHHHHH

Another experiment has as its target T4, human C2 G677A (human, UniProt P06681 21-752).
T4 sequence: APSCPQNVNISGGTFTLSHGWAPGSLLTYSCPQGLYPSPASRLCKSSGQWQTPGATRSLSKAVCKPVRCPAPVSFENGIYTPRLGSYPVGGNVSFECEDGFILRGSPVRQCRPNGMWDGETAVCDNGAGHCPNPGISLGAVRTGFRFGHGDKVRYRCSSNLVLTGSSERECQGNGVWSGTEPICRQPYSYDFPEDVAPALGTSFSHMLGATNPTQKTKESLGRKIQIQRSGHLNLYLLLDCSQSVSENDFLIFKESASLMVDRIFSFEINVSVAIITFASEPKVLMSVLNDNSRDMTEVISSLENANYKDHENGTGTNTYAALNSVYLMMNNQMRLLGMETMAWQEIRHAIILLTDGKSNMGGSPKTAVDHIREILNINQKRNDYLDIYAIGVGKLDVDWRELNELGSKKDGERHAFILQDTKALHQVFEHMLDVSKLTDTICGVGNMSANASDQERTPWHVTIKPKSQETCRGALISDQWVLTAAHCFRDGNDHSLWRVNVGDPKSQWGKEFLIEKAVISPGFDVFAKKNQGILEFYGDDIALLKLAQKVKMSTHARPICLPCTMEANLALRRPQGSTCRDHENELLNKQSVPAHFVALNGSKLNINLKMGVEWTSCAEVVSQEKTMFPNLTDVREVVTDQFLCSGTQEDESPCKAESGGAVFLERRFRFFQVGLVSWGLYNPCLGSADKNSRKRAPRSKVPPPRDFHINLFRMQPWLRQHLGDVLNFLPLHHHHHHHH

B1: RF16-226 (antibody, human IgG4 S228P, lambda)
heavy: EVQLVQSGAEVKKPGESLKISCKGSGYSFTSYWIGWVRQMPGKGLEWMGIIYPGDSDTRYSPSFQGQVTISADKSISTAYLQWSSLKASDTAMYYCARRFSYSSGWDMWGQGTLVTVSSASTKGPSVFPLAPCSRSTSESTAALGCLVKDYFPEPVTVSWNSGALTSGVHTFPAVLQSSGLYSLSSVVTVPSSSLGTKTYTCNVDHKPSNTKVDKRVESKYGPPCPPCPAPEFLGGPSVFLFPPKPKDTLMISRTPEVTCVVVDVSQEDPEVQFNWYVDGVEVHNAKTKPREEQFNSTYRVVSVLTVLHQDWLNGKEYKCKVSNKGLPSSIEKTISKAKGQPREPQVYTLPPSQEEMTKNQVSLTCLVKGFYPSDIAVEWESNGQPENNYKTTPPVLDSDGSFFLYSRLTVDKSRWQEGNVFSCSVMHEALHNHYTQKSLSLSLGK
light: SYELTQPPSVSVSPGQTARITCSGDALTSKYVAWYQQKSGLAPLLVIYEDTRRPSGIPAKFSGSSSGSVATLTISGAHGDDEADYYCYSTDASGHQRVFGGGTKLTVLSQPKAAPSVTLFPPSSEELQANKATLVCLISDFYPGAVTVAWKADGSPVKAGVETTKPSKQSNNKYAASSYLSLTPEQWKSHRSYSCQVTHEGSTVEKTVAPTECS
notes: pH-dependent anti-C2 antibody from a phage display library; also called WT
What is called Kd is a measure of binding affinity in units of concentration. Higher therefore signals a looser complex. Turning to B1, the Kd in the experiment with human C2 G427A is 4.2 nM; in the experiment with human C2 R493A, 24.3 nM; in the experiment with human C2 K550A it was 15 nM; with human C2 G677A it was 8.7 nM.
